Laboratory results reported in the supplement of paper PMC9170038.

Tested on: MS2 coat protein
Test: apparent KD of MS2 coat protein; designed switch direction (-1 OFF switch, 1 ON switch): 1; higher = weaker reporter binding
Outline: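 RNA switches sharing common flanks were transcribed by stalled E. coli RNA polymerase on Illumina chips. A doubling series of SNAP-549-labelled MS2 coat protein, from 0.7 or 1.5 nM to 3 µM, was applied in Tris-HCl pH 7.5 buffer with KCl, MgCl2, BSA, DTT, tRNA and Tween-20. Each step lasted 0.8–1.5 h at the bottom of the series and 10–20 min at the top. Normalised cluster fluorescence was curve-fitted, giving apparent KD as the per-design median over clusters.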

[1] = input ligand: microRNA oligo, concentration not stated
[2] = Eterna round: R95, input ligand: FMN 200 uM
[3] = Eterna round: R95, input ligand: microRNA oligo, concentration not stated
[4] = Eterna round: R95, input ligand: none

GUGGAGGGUUGAGGAUAUUGGUUGCAUAUGUUUAACAUGAGGAUCACCCAUGUGGGUUGCGGUUUCGAGAAGGUAGGUUGCUGG [salish99_SSNG2_r04_043] (Eterna round: R96, puzzle: Same State NG 2)
apparent KD of MS2 coat protein (input ligand: FMN 200 uM): 90.8 nM
apparent KD of MS2 coat protein [1]: 82.2 nM
apparent KD of MS2 coat protein (input ligand: none): 75.2 nM

GUGGUCAGACAUGAGGAUCACCCAUGUGGAAUAAAUAAGGACUAGGAUAUGGAAUAUAGGAUAUACCAGAAGGAGUGGUUGGUG (Eterna round: R96, puzzle: Same State NG 3)
apparent KD of MS2 coat protein [1]: 36.5 nM

GUGGUCAGACAUGAGGAUCACCCAUGUGGAAUAAAUAAGGACUAGGAUAUUUAAUAUAGGAUAUAAAAGAAGGAGUGGUUGGUG (Eterna round: R96, puzzle: Same State NG 3)
apparent KD of MS2 coat protein (input ligand: FMN 200 uM): 85.1 nM
apparent KD of MS2 coat protein [1]: 44.1 nM
apparent KD of MS2 coat protein (input ligand: none): 59.6 nM

GUGGUCAGACAUGAGGAUCACCCAUGUGGAAUAAAUAAGGGACAGGAUAUUCAAUAUAGGAUAUAGAAGAAGGGUUGGUUGGUG (Eterna round: R96, puzzle: Same State NG 3)
apparent KD of MS2 coat protein [1]: 104 nM

GUGGUGUAGAUACAGGAUAUGUUGCUCGUAACAUGAGGAUCACCCAUGUAUCUAUGAGAAUAAAUGCAGAAGGGUGCACACCACG [Mat - Same State 2 - Mod of UCT - D73] (puzzle: Same State 2)
apparent KD of MS2 coat protein [2]: 19.1 nM
apparent KD of MS2 coat protein [3]: 352 nM
apparent KD of MS2 coat protein [4]: 311 nM

GUGGUGUAGAUACAGGAUAUGUUGCUCGUAACAUGAGGAUCACCCAUGUAUCUAUGAGAUUAAAUGCAGAAGGGUGCACACCACU [salish99_ss2_r3_086] (puzzle: Same State 2)
apparent KD of MS2 coat protein [2]: 15.7 nM
apparent KD of MS2 coat protein [3]: 148 nM
apparent KD of MS2 coat protein [4]: 325 nM

GUUAAACAUGAGGAUCACCCAUGUCAAUGUAGUCGAGGAUAUGGGCAGCUAUGAGGCGUACUAGAAGGCGAAGAGU [Mat - Same State 1 - Mod of JL - D12] (Eterna round: R96, puzzle: Same State 1)
apparent KD of MS2 coat protein [1]: 224 nM

GUUAAACAUGAGGAUCACCCAUGUCAAUGUAGUCGAGGAUAUGGGCAGCUAUGAGGCGUACUAGAAGGCGAAGAGU [Mat - Same State 1 - Mod of JL - D12] (puzzle: Same State 1)
apparent KD of MS2 coat protein [2]: 106 nM
apparent KD of MS2 coat protein [3]: 196 nM
apparent KD of MS2 coat protein [4]: 280 nM

GUUACAUGAGGAUCACCCAUGUAUGUGUGGGAGUAAGUGUCUUAGGAUAUCUAUGAUUUAAUUAAAGAGAAGGAAGAUUGUUGU [JMF's solution 83] (Eterna round: R96, puzzle: Same State NG 3)
apparent KD of MS2 coat protein (input ligand: FMN 200 uM): 154 nM
apparent KD of MS2 coat protein [1]: 85 nM
apparent KD of MS2 coat protein (input ligand: none): 103 nM

GUUACAUGAGGAUCACCCAUGUAUGUGUGGGAGUAAGUGUCUUAGGAUAUCUAUGGUUUAAUUUAAGAGAAGGAAGAUUGUUGU [JMF's solution 72] (Eterna round: R96, puzzle: Same State NG 3)
apparent KD of MS2 coat protein (input ligand: FMN 200 uM): 111 nM
apparent KD of MS2 coat protein [1]: 73.9 nM
apparent KD of MS2 coat protein (input ligand: none): 96.6 nM

GUUACAUGAGGAUCACCCAUGUAUGUGUGGGAGUAAGUGUCUUAGGAUAUCUAUUAUUAAAAUUAAGAGAAGGAAGAUUGUUGU [JMF's solution 18] (Eterna round: R96, puzzle: Same State NG 3)
apparent KD of MS2 coat protein (input ligand: FMN 200 uM): 115 nM
apparent KD of MS2 coat protein [1]: 98.1 nM
apparent KD of MS2 coat protein (input ligand: none): 103 nM

GUUACAUGAGGAUCACCCAUGUAUGUGUGGGAGUAAGUGUCUUAGGAUAUCUGUUAUUUAGUUUAAGAGAAGGAAGAUUGUUGU [JMF's solution 41] (Eterna round: R96, puzzle: Same State NG 3)
apparent KD of MS2 coat protein (input ligand: FMN 200 uM): 124 nM
apparent KD of MS2 coat protein [1]: 80.9 nM
apparent KD of MS2 coat protein (input ligand: none): 97.4 nM

GUUACAUGAGGAUCACCCAUGUGUGUGUGGGAGUGAGUGGCUUAGGAUAUCUAUGAUUUUAGUUAAGAGAAGGAGGAUUGCUGU [SS-NG3-LRO07] (Eterna round: R96, puzzle: Same State NG 3)
apparent KD of MS2 coat protein (input ligand: FMN 200 uM): 275 nM
apparent KD of MS2 coat protein [1]: 267 nM
apparent KD of MS2 coat protein (input ligand: none): 414 nM

GUUAGGAAUCUAGCUGACAUGAGGAUCACCCAUGUUAGUGGGAAGGAUAUGGUACAGAAACUGUACCAGAAGGUCUUACUGUCU [MOD Omei's SS(NG) 3 AV9] (Eterna round: R96, puzzle: Same State NG 3)
apparent KD of MS2 coat protein (input ligand: FMN 200 uM): 23.8 nM
apparent KD of MS2 coat protein [1]: 21.4 nM
apparent KD of MS2 coat protein (input ligand: none): 25.9 nM

GUUAUACAUGAGGAUCACCCAUGUCAAUGUAGUCGAGGAUAUGGGCAGCUAUGUAGCGUACUAGAAGGCGAAGAGU [JL-ss1-3.13 ViennaUCT mod] (puzzle: Same State 1)
apparent KD of MS2 coat protein [2]: 68.4 nM
apparent KD of MS2 coat protein [3]: 43.1 nM
apparent KD of MS2 coat protein [4]: 103 nM

GUUCGGAAUCGAGCUGACAUGAGGAUCACCCAUGUUAGUGGGAAGGAUAUGGUACAGAAACUGUACCAGAAGGUCCUGCUGUCU [MOD2 Omei's SS(NG) 3 AV9] (Eterna round: R96, puzzle: Same State NG 3)
apparent KD of MS2 coat protein (input ligand: FMN 200 uM): 38.2 nM
apparent KD of MS2 coat protein [1]: 57.2 nM
apparent KD of MS2 coat protein (input ligand: none): 59.5 nM

UACAAUCUAUCUGAGGAUAUCAUGAUCAUAACAUGAGGAUCACCCAUGUGCAGGAAAACUGCAUAUGAGAAGGCAGAUAGAUUGU [salish99_ss2_r3_073] (puzzle: Same State 2)
apparent KD of MS2 coat protein [2]: 214 nM
apparent KD of MS2 coat protein [3]: 154 nM
apparent KD of MS2 coat protein [4]: 863 nM

UAGAGAGGAAGCGAGGAUAUCGUGUGAGGUACAUGAGGAUCACCCAUGUUUUAUGUUGAGAGAGGCGAGAAGGCGCAGGAGAAAA [JR_SS2_Sub087] (puzzle: Same State 2)
apparent KD of MS2 coat protein [2]: 20 nM
apparent KD of MS2 coat protein [3]: 37.3 nM
apparent KD of MS2 coat protein [4]: 26.2 nM

UAGAGAGGAAGCGAGGAUAUCGUGUUAGGUACAUGAGGAUCACCCAUGUUGUAGGUAGAGGUAGGCGAGAAGGCGCAGGAGAGGA [JR_SS2_Sub092] (puzzle: Same State 2)
apparent KD of MS2 coat protein [2]: 35.6 nM
apparent KD of MS2 coat protein [3]: 37.6 nM
apparent KD of MS2 coat protein [4]: 66.2 nM

UAGGGACAUGAGGAUCACCCAUGUGCCUCAUAUGGAGAAACACAGGAUAUGCUGAGGGAAACAUGGCAGAAGGGUGAAGAGAGG [Default title] (Eterna round: R96, puzzle: Same State NG 3)
apparent KD of MS2 coat protein (input ligand: FMN 200 uM): 31.9 nM
apparent KD of MS2 coat protein [1]: 27.3 nM
apparent KD of MS2 coat protein (input ligand: none): 50.9 nM

UAGUGAUUGCAAGGAUAUGCUAGUUUUUAUUUGUGUUUGAUAACAAACAUGAGGAUCACCCAUGUGCAGAAGGUGCUAGAUAUG [JR_SSNG2_Sub079] (Eterna round: R96, puzzle: Same State NG 2)
apparent KD of MS2 coat protein [1]: 348 nM

UAGUUACUAUCUCAGGAUAUCAUGUCAAAGACAUGAGGAUCACCCAUGUACCAGGAAACUGGUUAUGAGAAGGGAGAUAGUAACA [Mat - Same State 2 - Mod - D56] (puzzle: Same State 2)
apparent KD of MS2 coat protein [2]: 78.7 nM
apparent KD of MS2 coat protein [3]: 34.2 nM
apparent KD of MS2 coat protein [4]: 38.6 nM

UAUCCAUAGAUAGGAUAUCAGUAUACAUGAGGAUCACCCAUGUUAUACUUGGUUUUAAGUUAGUCUGAGAAGGAUCUUGAUGAA [SameState NG2 #4] (Eterna round: R96, puzzle: Same State NG 2)
apparent KD of MS2 coat protein (input ligand: FMN 200 uM): 12.6 nM
apparent KD of MS2 coat protein [1]: 11 nM
apparent KD of MS2 coat protein (input ligand: none): 12.9 nM

UAUCGUUUGAUAGGAUAUCGCUAUACAUGAGGAUCACCCAUGUUUACCACGCUGGUUUUUCAUACCGAGAAGGAUUCUGAUGAC [salish99_SSNG02_r04_006] (Eterna round: R96, puzzle: Same State NG 2)
apparent KD of MS2 coat protein (input ligand: FMN 200 uM): 38.3 nM
apparent KD of MS2 coat protein [1]: 31.5 nM
apparent KD of MS2 coat protein (input ligand: none): 27.7 nM

UAUUAAUCUGUAGGAUAUCUAGGAUAUGGACGAGGAUCACCCGAGCAGCAUCAGCGCACCAGAGGAGAGAAGGACGCUUUGGUG [pwkr ssNG2 2F5 2FMN.2] (Eterna round: R96, puzzle: Same State NG 2)
apparent KD of MS2 coat protein (input ligand: FMN 200 uM): 325 nM
apparent KD of MS2 coat protein [1]: 208 nM
apparent KD of MS2 coat protein (input ligand: none): 367 nM

UAUUUAAUCGUAGGAUAUAGAAUGAAAUUUGUACUAGAAGGACGUUACAUGAGGAUCACCCAUGUGGUAAGUGGGACAUAGUUU [JR_SSNG1_Sub036] (Eterna round: R96, puzzle: Same State NG 1)
apparent KD of MS2 coat protein (input ligand: FMN 200 uM): 141 nM
apparent KD of MS2 coat protein [1]: 84.5 nM
apparent KD of MS2 coat protein (input ligand: none): 82.2 nM

UCGAGCGUACUUGCAGACAUGAGGAUCACCCAUGUAAAUGGGAAGGAUAUGGUACCGUUUCGGUACCAGAAGGUCCUGGGUGCU [salish99_SSNG3_r04_307] (Eterna round: R96, puzzle: Same State NG 3)
apparent KD of MS2 coat protein (input ligand: FMN 200 uM): 329 nM
apparent KD of MS2 coat protein [1]: 1090 nM
apparent KD of MS2 coat protein (input ligand: none): 984 nM

UCUGAUGCCGUAGGAUAUCUAGGAUAUGGACGAGGAUCACCCGAGCAGCAUCAGCGCACCAGAGGAGAGAAGGACGCUUUGGAA [pwkr ssNG2 2F5 2FMN.21] (Eterna round: R96, puzzle: Same State NG 2)
apparent KD of MS2 coat protein (input ligand: FMN 200 uM): 438 nM
apparent KD of MS2 coat protein [1]: 274 nM
apparent KD of MS2 coat protein (input ligand: none): 1190 nM
